Laboratory results published in the RNAGym collection of RNA variant scans (doi:10.7554/elife.80360).

B1: Hammerhead Ribozyme (parent)
chain: ACCGGAUGUGCUUUCCGGUCUGAUGAGUCCGUGAGGACGAAACAG

Variants of: B1
Assay: self-cleavage, relative activity (ratio to wild type); higher = more cleavage; co-transcriptional

| Variant | self-cleavage |
| --- | --- |
| U14A C16U | 0.798 |
| G18U | 0.875 |
| G5C G31C | 0.613 |
| G25A A26G | 0.306 |
| G8U G39U | 0.344 |
| G35C A41C | 0.337 |
| U13G C38A | 0.434 |
| U13A A44C | 0.619 |
| G27C C38U | 0.792 |
| A34C C43A | 0.309 |
| U24A G25U | 0.282 |
| C29A A44U | 0.407 |
| G33C A42U | 0.28 |
| C3A A37C | 0.354 |
| U21C G33C | 0.756 |
| C15G G45C | 0.379 |
| G17U C29U | 0.748 |
| C20A G27A | 0.333 |
| G10C U13C | 1.03 |
| A6G G10C | 0.889 |
| U21G C29G | 0.285 |

| Variant | self-cleavage |
| --- | --- |
| A6C C20A | 0.291 |
| U28C G35A | 0.638 |
| G17U C43A | 0.356 |
| G17U C43G | 0.291 |
| C3G C29G | 0.345 |
| C16U G18U | 0.746 |
| U19G G33U | 0.411 |
| C2A U9C | 0.695 |
| C16G A34U | 0.709 |
| A6U C30A | 0.649 |
| A41C C43U | 0.316 |
| C16A C30G | 0.591 |
| C16A C30A | 0.911 |
| G10C G36A | 0.586 |
| G10C G36C | 0.84 |
| U14A C30G | 0.624 |
| U19A A41C | 0.391 |
| C20U G33A | 0.867 |
| C2A U19A | 0.308 |
| G4A C15U | 0.532 |
| G31A A37G | 0.978 |

| Variant | self-cleavage |
| --- | --- |
| G31A A37U | 0.866 |
| G4A C30G | 0.368 |
| G25U A37U | 0.302 |
| A1C C38U | 0.495 |
| C15G G39C | 0.275 |
| U7G G18C | 0.464 |
| G5U G18A | 0.334 |
| A26U A37C | 0.509 |
| A6C A44C | 0.391 |
| A26C C38U | 0.503 |
| U7G U28A | 0.991 |
| G27A A41C | 0.339 |
| C3A C30G | 0.426 |
| C3A C30U | 0.772 |
| G10U U14G | 0.709 |
| G17C A40U | 0.3 |
| C3A C29U | 0.534 |
| U9A G33A | 0.92 |
| C38A C43A | 0.335 |
| A41U | 0.393 |
| A1U U32A | 0.692 |

| Variant | self-cleavage |
| --- | --- |
| U7A G8U | 1.52 |
| U14C G25C | 0.228 |
| U19A G39U | 0.29 |
| U19A G39C | 0.329 |
| A34U A41C | 0.289 |
| C20G C29A | 0.312 |
| C2U C38G | 0.976 |
| A23G U28G | 0.386 |
| U14C C30U | 0.613 |
| U12C C29A | 0.589 |
| C30A A37G | 0.586 |
| A1G U32C | 1.48 |
| C16A C29U | 1.06 |
| A34C C38U | 0.758 |
| G5A G33U | 1.44 |
| G22U U28C | 0.312 |
| C11U G31U | 1.35 |
| U21C G39U | 0.34 |
| G25C A42U | 0.332 |
| A23U A41G | 0.301 |
